Assay [1] has as its target T1, human TROP2-his protein (human, UniProt P09758 27-274).
T1 construct: Biotin-labelled in the ELISAs, unlabelled analyte in Biacore; also called biotin-labeled human TROP2-his protein; biotin human Trop2-his
T1 sequence: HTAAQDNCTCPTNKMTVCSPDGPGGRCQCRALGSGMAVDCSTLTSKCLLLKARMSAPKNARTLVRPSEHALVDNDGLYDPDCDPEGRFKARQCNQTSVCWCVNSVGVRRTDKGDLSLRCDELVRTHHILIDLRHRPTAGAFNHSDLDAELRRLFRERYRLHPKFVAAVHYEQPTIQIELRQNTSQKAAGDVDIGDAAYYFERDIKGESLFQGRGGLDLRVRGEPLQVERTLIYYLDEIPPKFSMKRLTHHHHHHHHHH
The assay is described as follows: SPR Biacore T200, benchmark captured on Protein G chip, TROP2-his analyte. The method, then: (§1) Un-reacted moieties on the chip (biosensor) surface were blocked with ethanolamine. […] The antigen-antibody association kinetics was followed for 2 minutes and the dissociation kinetics was followed for 10 minutes. The association and dissociation curves were fit to a 1:1 Langmuir binding model using BIAcore evaluation software.
(In SPR one partner is held on a chip, and binding of the other changes the refractive index at the surface.)

In assay [2] the target is T1, human TROP2-his protein. The assay is described as follows: epitope grouping ELISA, 15 ug/ml antibody premixed with biotin human TROP2-his; competitor: coated huA1E4F7D4-V16. The method, then: Firstly, capture ELISA was performed to determine the concentration of biotin-labeled human Trop2 proteins appropriate for the epitope binning test. […] The plates were washed for 4 times, added with 100 μl/well of serially diluted biotin human Trop2-his proteins (SEQ ID NO: 67) in PBST with 2.5% non-fatty milk (starting from 1.3 μg/ml with a 5-fold serial dilution), and incubated for 40 min at 37° C. Then the plates were washed for 4 times and added with 100 μl/vell of HRP-streptavidin (Jackson Immuno Research, Cat #016-030-084). The plates were incubated for another 40 min at 37° C. Then the plates were washed again, and 100 μl/well TMB was added for color development at RT for 15 min followed by quenching with 50 μl 1M H₂SO₄. The OD values at 450 nm were read.
With the appropriate concentration determined above, epitope grouping ELISA was performed. […] ELISA plates were washed once with wash buffer (PBS+0.05% v/v Tween-20, PBST) and then blocked with 200 μl blocking buffer (5% w/w non-fatty milk in PBST) for 2 hours at 37° C. […] The mixtures were incubated at room temperature for 40 minutes. After plate washing for 4 times, the antibody/biotin-TROP2-his protein mixtures were added to the antibody coated plates, 100 μl per well, and incubated for another 40 min at 37° C. Then 100 μl/well of HRP-streptavidin was added and incubated for 40 min. Then OD₄₅₀ values were determined and the cross-competition capability was calculated (cross-competition capability of antibody X (%)=(OD₄₅₀ of Antibody X-[…] of Blank)/(OD₄₅₀ of no mAb-OD₄₃₀ of Blank)*100%).

Assay [3] deals with T1, human TROP2-his protein. The assay is described as follows: SPR Biacore, antibody captured on anti-human IgG CM5 chip, TROP2-his analyte. The method, then: as §1
In assay [4] the target is T1, human TROP2-his protein. The assay is described as follows: capture ELISA, captured antibody, biotin human TROP2-his in solution, OD(450-630). The method, then: Plates were washed once with wash buffer (PBS+0.05% v/v Tween-20, PBST) and then blocked with 200 μl/well blocking buffer (5% w/v non-fatty milk in PBST) for 2 hours at 37° C. […] Plates containing captured anti-TROP2 antibodies were incubated with biotin-labeled human TROP2-his protein (prepared in house, SEQ ID NO: 67, 56.7 ng/mL in 2.5% w/v non-fatty milk in PBST, 100 μl/well) for 40 minutes at 37° C., washed 4 times, and incubated with streptavidin conjugated HRP (1:10000 dilution in PBST, Jackson Immuno Research, Cat #016-030-084, 100 μl/well) for 40 minutes at 37° C. After a final wash, plates were incubated with 100 μl/well ELISA substrate TMB (Innoreagents, Cat #TMB-S-002) at room temperature. The reaction was stopped in 3-10 minutes at room temperature with 50 μl/well 1M H₂SO₄, and the absorbance of each well was read on a microplate reader using dual wavelength mode with 450 nm for TMB and 630 nm as the reference wavelength. The OD (450-630) values were plotted against antibody concentration. Data was analyzed using Graphpad Prism software and EC₅₀ values were reported.
(ELISA stands for enzyme-linked immunosorbent assay.)

In assay [5] the target is T1, human TROP2-his protein. The assay is described as follows: competitive ELISA: mouse A1E11A12D1 coated at 2 ug/mL, antibody premixed with biotin human TROP2-his; blocked: binding of TROP2-his to coated A1E11A12D1. The method, then:
(§2) The mouse anti-TROP2 antibodies were tested for epitope binding in a competitive ELISA assay. […] ELISA plates were washed once with wash buffer (PBS+0.05% v/v Tween-20, PBST) and then blocked with 200 μl blocking buffer (5% w/v non-fatty milk in PBST) for 2 hours at 37° C. While blocking, the anti-TROP2 antibodies or controls were diluted with biotin labeled human TROP2-his protein (SEQ ID NO: 67, 34 ng/mL in 2.5% wA non-fatty milk in PBST), starting at 80 nM with a 5-fold serial dilution, and incubated at room temperature for 40 minutes. After plate washing for 4 times, the antibody/TROP2-his protein mixtures were added to the antibody coated plates, 100 μl per well. After incubation at 37° C. for 40 minutes, plates were washed 4 times again using wash buffer. Then the plates were added and incubated with 100 μl Peroxidase Streptavidin (1:10000 dilution in PBST buffer. Jackson Immunoresearch, Cat #016-030-084) for 40 minutes at 37° C. Plates were washed again using wash buffer. Finally, TMB was added and the reaction was stopped using 1M H₂SO₄. The absorbance of each well was read on a microplate reader using dual wavelength mode with 450 nm for TMB and 630 nm as the reference wavelength, and the OD (450-630) values were plotted against antibody concentration. Data was analyzed using Graphpad Prism software and IC₅₀ values were reported.

The target in assay [6] is T1, human TROP2-his protein. The assay is described as follows: competitive ELISA: mouse A1H3C5H8E12 coated at 2 ug/mL, antibody premixed with biotin human TROP2-his; blocked: binding of TROP2-his to coated A1H3C5H8E12. The method, then:
as §2

In general, Kd refers to the concentration at which binding is half-saturated. High values mean a looser complex, low ones a tighter complex. Broadly, the EC50 is the midpoint of the concentration-response curve. Lower therefore signals a more potent agent. In general, IC50 refers to the concentration at which inhibition is half-maximal. Read a low IC50 as higher potency.

B1: benchmark (in house prepared sacituzumab) (antibody, human IgG1, kappa, V domains shown)
VH: SVQLQQSGSELKKPGASVKVSCKASGYTFTNYGMNWVKQAPGQGLKWMGWINTYTGEPTYTDDFKGRFAFSLDTSVSTAYLQISSLKADDTAVYFCARGGFGSSYWYFDVWGQGSLVTVSS
VL: DIQLTQSPSSLSASVGDRVSITCKASQDVSIAVAWYQQKPGKAPKLLIYSASYRYTGVPDRFSGSGSGTDFTLTISSLQPEDFAVYYCQQHYITPLTFGAGTKVEIKR
notes: also called BM; BM1
For the molecule B1, the values for the Kd in the assay with human TROP2-his protein [1] and with human TROP2-his protein [3] were 0.868 nM and 0.385 nM, respectively. Further, the OD450 with human TROP2-his protein [2] stood at 1.61 OD450. Further, in the assay with human TROP2-his protein [4], a half-maximal response (EC50) required 0.487 nM.

B2: huA1E4F7D4-V16 (antibody, human IgG1, kappa, V domains shown)
VH: QVQLVQSGAEVKKPGASVKVSCKASGYSFTTHWIHWVRQAPGQGLEWIGTIFPSNAYAVYNQKFRDRATMTADTSISTAYIELSRLRSDDTAVYYCARASYFDYWGQGTTVTVSS
VL: EIVLTQSPATLSLSPGERATLSCRASQNIGTSIHWFQQKPGGAPRLLIKYASESISGIPSRFSGSGSGTDFTLTISSLEPEDFAVYYCQHSHSWPFTFGQGTKLEIKR
notes: Positions of the X residues are given in the claims; also called humanized antibody huA1E4F7D4-V16
With B2, the OD450 in the assay with human TROP2-his protein [2] came out at 0.027 OD450.

B3: mouse antibody A1E4F7D4 (antibody, V domains shown)
VH: QVQLQQSGAELAKPGTSVKMSCEASGYSFTTHWIHWMKQRPGQGLEWIGTIFPSNAYAVYNQKFRDRAIMTADRSSTTAYIQLTGLTSEDSAVYYCARASYFDYWGQGTTLTVSS
VL: DILLTQSPATLSVSPGERVTFSCRASQNIGTSIHWFQQRTTGSPRLLIKYASESISGIPSRFSGSGSGTDFTLHINSVESEDIAHYYCQHSHSWPFTFGSGTKLEIQ
notes: Mouse monoclonal IgG purified from hybridoma supernatant; also called Mouse A1E4F7D4
For the molecule B3, the IC50 with human TROP2-his protein [5] worked out at 0.584 nM; in the assay with human TROP2-his protein [6], 0.621 nM.

B4: mouse antibody A1E11A12D1 (antibody, V domains shown)
VH: QVQLQQSGAELARPGASVKLSCMASGYTFTTYGISWVRQRTGQGLEWIGQIYPGSDYSYCDEDFKGKATLTADKSSSTAYMQLSSLTSEDSAVYFCARASYFDYWGQGTTLTVSS
VL: DILLTQSPAILSVSPGERVSFSCRASQTIGTAIHWYQQRANGSPRLLIKYASESISGIPSRFSGSGSGTDFALSINTVESEDFAYYYCQQSNNWPFTFGGGTKLEIR
notes: Mouse monoclonal IgG purified from hybridoma supernatant
Molecule B4 returned an IC50 with human TROP2-his protein [6] of 0.933 nM.

Values taken from patent publication US20240207432A1 (BIOSION, published 2024).
